Experimental findings from the RNAGym collection of RNA variant scans (doi:10.1093/molbev/msab373) are described below.

B1: Azoarcus group I ribozyme (parent)
chain: GUGCCUUGCGCCGGGAAACCACGCAAGGGAUGGUGUCAAAUUCGGCGAAACCUAAGCGCCCGCCCGGGCGUAUGGCAACGCCGAGCCAAGCUUCGGCGCCUGCGCCGAUGAAGGUGUAGAGACUAGACGGCACCCACCUAAGGCAAACGCUAUGGUGAAGGCAUAGUCCAGGGAGUGGCGAAAGUCACACAAACCGG

The data set covers variants of B1. In words: reverse-splicing fitness (ratio to wild type); higher = more active; in vitro selection; Mg2+ level not given. In outline: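 An in vitro group I ribozyme library with randomized positions was T7-transcribed and gel-purified. In triplicate, 10 pmol RNA in EPPS pH 7.5 was reacted with 50 pmoles of a 30-nt RNA substrate for 1 h at 37 °C across several added MgCl2 levels (1–48 mM), then stopped with EDTA. Products were reverse transcribed from a substrate-complementary primer, PCR-amplified and sequenced (HiSeq 4000). Fitness is a variant's read proportion after selection over that before, normalised to wild type.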
Turning to C82A A111U A120G A145U C169A U176A, the reverse-splicing fitness came to 0.012. Consider C82A A111U A120G A145U C169A U176C, for which the reverse-splicing fitness came to 0.0107. Consider C82A A111U A120G A145U C169A U176G, for which the reverse-splicing fitness is 0.00477. For C82A A111U A120G A145U C150G C169G, the reverse-splicing fitness worked out at 0.00685.

As for C82A A111U A120G A145U C150G C169A, the reverse-splicing fitness worked out at 0.00884. C82A A111U A120G A145U C150G C169U: the reverse-splicing fitness was 0.00845. The figure for C82A A111U A120G A145G C150G C169U U176C is 0.013; for C82A A111U A120G A145G C150G C169U U176G it is 0.00707. Consider C82A A111U A120G A145G C150G C169U U176A, for which the reverse-splicing fitness was found to be 0.0121. Consider C82A A111U A120G A145G C150U C169G U176A, for which the reverse-splicing fitness was found to be 0.0133. For C82A A111U A120G A145G C150U C169G U176G, the reverse-splicing fitness worked out at 0.00517. C82A A111U A120G A145G C150U C169G U176C: the reverse-splicing fitness amounted to 0.0178.

Turning to C82A A111U A120G A145U C169G U176G, the reverse-splicing fitness is 0.00437. To C82A A111U A120G A145U C169G U176C belongs 0.014; to C82A A111U A120G A145U C169G U176A, 0.0119. With C82A A111U A120G A145U C150U C169G U176G, the reverse-splicing fitness is 0.00527. C82A A111U A120G A145U C150U C169G U176A: the reverse-splicing fitness was found to be 0.0153. C82A A111U A120G A145U C150U C169G U176C: the reverse-splicing fitness turned out to be 0.0147. To C82A A111U A120G A145U C150G C169G U176G belongs 0.00488; to C82A A111U A120G A145U C150G C169G U176A, 0.00656; to C82A A111U A120G A145U C150G C169G U176C, 0.00476.

On to C82A A111U A120G C150A C169U U176C, for which the reverse-splicing fitness amounted to 0.02. For the variant C82A A111U A120G C150A C169U U176G, the reverse-splicing fitness amounted to 0.00816. In the case of C82A A111U A120G C150A C169U U176A, the reverse-splicing fitness came to 0.021. To C82A A111U A120G A145U C150U C169U U176G belongs 0.00524; to C82A A111U A120G A145U C150U C169U U176A, 0.0207; to C82A A111U A120G A145U C150U C169U U176C, 0.0148.

Regarding C82A A111U A120G A145G, the reverse-splicing fitness was found to be 0.0152.

For C82A A111U A120G A145U, the reverse-splicing fitness came to 0.0153. C82A A111U A120G A145G C169U U176G: the reverse-splicing fitness is 0.00504. Consider C82A A111U A120G A145G C169U U176C, for which the reverse-splicing fitness worked out at 0.0167. The figure for C82A A111U A120G A145G C169U U176A is 0.0211. The figure for C82A A111U A120G A145U C150U is 0.0134; for C82A A111U A120G A145U C150G it is 0.00799; for C82A A111U A120G A145U C150A it is 0.00949. C82A A111U A120G C150G C169G U176C: the reverse-splicing fitness worked out at 0.0044. As to C82A A111U A120G C150G C169G U176A, the reverse-splicing fitness amounted to 0.00798. On to C82A A111U A120G C150G C169G U176G, for which the reverse-splicing fitness turned out to be 0.00446. As for C82A A111U A120G A145U C150A C169U U176G, the reverse-splicing fitness turned out to be 0.00491. For the variant C82A A111U A120G A145U C150A C169U U176A, the reverse-splicing fitness was 0.0193. As to C82A A111U A120G A145U C150A C169U U176C, the reverse-splicing fitness was 0.0164.

C82A A111U A120G A145G C150A C169A: the reverse-splicing fitness is 0.0112.

With C82A A111U A120G A145G C150A C169G, the reverse-splicing fitness was determined as 0.00912. Regarding C82A A111U A120G A145G C150A C169U, the reverse-splicing fitness is 0.00929. As for C82A A111U A120G C150G C169U U176A, the reverse-splicing fitness was 0.01. For C82A A111U A120G C150G C169U U176C, the reverse-splicing fitness turned out to be 0.0145. In the case of C82A A111U A120G C150G C169U U176G, the reverse-splicing fitness was determined as 0.00618. Turning to C82A A111U A120G A145G C150U C169A U176A, the reverse-splicing fitness is 0.0144. To C82A A111U A120G A145G C150U C169A U176C belongs 0.0165; to C82A A111U A120G A145G C150U C169A U176G, 0.00668. In the case of C82A A111U A120G A145U C169U U176C, the reverse-splicing fitness came out at 0.0159.

C82A A111U A120G A145U C169U U176G: the reverse-splicing fitness turned out to be 0.0047.

In the case of C82A A111U A120G A145U C169U U176A, the reverse-splicing fitness was found to be 0.0196.

Turning to C82A A111U A120G A145G C150U C169U U176G, the reverse-splicing fitness was 0.00618. Regarding C82A A111U A120G A145G C150U C169U U176A, the reverse-splicing fitness was determined as 0.0181. The figure for C82A A111U A120G A145G C150U C169U U176C is 0.0156. For C82A A111U A120G A145U C150U C169A U176G, the reverse-splicing fitness worked out at 0.0057. As to C82A A111U A120G A145U C150U C169A U176A, the reverse-splicing fitness was 0.0139.

Consider C82A A111U A120G A145U C150U C169A U176C, for which the reverse-splicing fitness was found to be 0.0139. Turning to C82A A111U A120G C150A, the reverse-splicing fitness came out at 0.0106.

Take C82A A111U A120G C150G: the reverse-splicing fitness came to 0.00697. To C82A A111U A120G C150G C169A U176A belongs 0.0106; to C82A A111U A120G C150G C169A U176C, 0.00965. For the variant C82A A111U A120G C150G C169A U176G, the reverse-splicing fitness stood at 0.00672. Regarding C82A A111U A120G A145G C150G C169A U176A, the reverse-splicing fitness was found to be 0.0132. Consider C82A A111U A120G A145G C150G C169A U176G, for which the reverse-splicing fitness was found to be 0.00821.

With C82A A111U A120G A145G C150G C169A U176C, the reverse-splicing fitness came to 0.0133. To C82A A111U A120G A145G C150G C169G U176A belongs 0.0109; to C82A A111U A120G A145G C150G C169G U176C, 0.0107. As for C82A A111U A120G A145G C150G C169G U176G, the reverse-splicing fitness is 0.00619. For C82A A111U A120G A145U C150A C169A U176A, the reverse-splicing fitness turned out to be 0.0146. For the variant C82A A111U A120G A145U C150A C169A U176G, the reverse-splicing fitness was 0.00486. With C82A A111U A120G A145U C150A C169A U176C, the reverse-splicing fitness stood at 0.0119.

Regarding C82A A111U A120G A145G U176C, the reverse-splicing fitness was found to be 0.0211. Take C82A A111U A120G A145G U176G: the reverse-splicing fitness amounted to 0.00714.

On to C82A A111U A120G A145G U176A, for which the reverse-splicing fitness was 0.0122. As to C82A A111U A120G A145C C169U U176C, the reverse-splicing fitness worked out at 0.0136.

For the variant C82A A111U A120G A145C C169U U176A, the reverse-splicing fitness was 0.0212. The figure for C82A A111U A120G A145C C169U U176G is 0.00478. As for C82A A111U A120G A145U C150U C169G, the reverse-splicing fitness worked out at 0.0104.

For C82A A111U A120G A145U C150U C169U, the reverse-splicing fitness worked out at 0.00891. As for C82A A111U A120G A145U C150U C169A, the reverse-splicing fitness worked out at 0.0101. On to C82A A111U A120G A145U C150G C169U U176A, for which the reverse-splicing fitness was 0.0104.
